# Source: the supplement of paper PMC10567573
# B1: MNAT1 (parent)
# chain: LEEALYEYQPLQIETYGPHVPELE
# Variants of: B1
# Assay: protein stability index of a GFP-peptide fusion (GPS, HEK-293T) (PSI 1-6); higher = more stable
# Conditions: c terminus: a fixed tail appended
# 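Also: lentivirally expressed fusions sorted by FACS into six bins by GFP to DsRed ratio, PSI derived from sequencing read proportions per bin multiplied by bin number.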
row,Variant,protein stability index
1,LEEALYEYQPLQIETYGPIVPELE,1.57
2,LEEALYEYQPLQIETYGPYVPELE,2.62
3,LEEALYEYQPLQIETYGPGVPELE,2.26
4,LEEALYEYQPLQIETYGPWVPELE,1.5
5,LEEALYEYQPLQIETYGPNVPELE,2.82
6,LEEALYEYQPLQIETYGPRVPELE,3.99
7,LEEALYEYQPLQIETRGPHVPELE,3.19
8,LEEALYEYQPLQIETAGPHVPELE,4.54
9,LEEALYEYQPLQIETCGPHVPELE,3.84
10,LEEALYEYQPLQIETKGPHVPELE,4.34
11,LEEALYEYQPLQIETPGPHVPELE,4.94
12,LEEALYEYQPLQIETVGPHVPELE,3.19
13,LEEALYEYQPLQIETTGPHVPELE,4.09
14,LEEALYEYQPLQIETYGPHHPELE,2.1
15,LEEALYEYQPLQIETYGPHKPELE,3.23
16,LEEALYEYQPLQIETYGPHMPELE,2.57
17,LEEALYEYQPLQIETYGPHRPELE,2.58
18,LEEALYEYQPLQIETYGPHPPELE,2.21
19,LEEALYEYQPLQIETYGPHLPELE,2.49
20,LEEALYEYQPLQIETYGPHSPELE,2.57
21,LEEALYEYQPLQIETYGPHQPELE,2.92
22,LEEALYEYQPLQIETYGPHDPELE,2.36
23,LEEALYEYQPLQIETYGPHFPELE,2.36
24,LEEALYEYQPLQIETYGPHTPELE,2.38

row,Variant,protein stability index
1,LEEALYEYQPLQIETYGNHVPELE,3.31
2,LEEALYEYQPLQIETYGHHVPELE,2.81
3,LEEALYEYQPLQIETYGSHVPELE,2.6
4,LEEALYEYQPLQIETYGPHVPELD,3.39
5,LEEALYEYQPLQIETYGPHVPELM,2.14
6,LEEALYEYQPLQIETYGPHVPELR,1.95
7,LEEALYEYQPLQIETYGPHVPELW,1.45
8,LEEALYEYQPLQIETYGPHVPELF,1.91
9,LEEALYEYQPLQIETYGPHVPELT,2.67
10,LEEQLYEYQPLQIETYGPHVPELE,4.89
11,LEETLYEYQPLQIETYGPHVPELE,4.27
12,LEEGLYEYQPLQIETYGPHVPELE,4.4
13,LEENLYEYQPLQIETYGPHVPELE,4.61
14,LEERLYEYQPLQIETYGPHVPELE,4.81
15,LEEVLYEYQPLQIETYGPHVPELE,1.91
16,LEEMLYEYQPLQIETYGPHVPELE,3.72
17,LEEALYEYAPLQIETYGPHVPELE,2.86
18,LEEALYEYLPLQIETYGPHVPELE,2.7
19,LEEALYEYGPLQIETYGPHVPELE,3.46
20,LEEALYEYNPLQIETYGPHVPELE,2.59
21,LEEALYEYFPLQIETYGPHVPELE,2.13
22,LEEALYEYIPLQIETYGPHVPELE,3.56
23,LEEALYEYCPLQIETYGPHVPELE,2.6
24,LPEALYEYQPLQIETYGPHVPELE,3.7

row,Variant,protein stability index
1,LWEALYEYQPLQIETYGPHVPELE,2.34
2,LYEALYEYQPLQIETYGPHVPELE,1.71
3,LAEALYEYQPLQIETYGPHVPELE,2.26
4,LFEALYEYQPLQIETYGPHVPELE,1.71
5,LREALYEYQPLQIETYGPHVPELE,3.28
6,LSEALYEYQPLQIETYGPHVPELE,2.4
7,LTEALYEYQPLQIETYGPHVPELE,2.2
8,LKEALYEYQPLQIETYGPHVPELE,2.47
9,REEALYEYQPLQIETYGPHVPELE,4.12
10,WEEALYEYQPLQIETYGPHVPELE,4
11,NEEALYEYQPLQIETYGPHVPELE,4.72
12,PEEALYEYQPLQIETYGPHVPELE,4.88
13,SEEALYEYQPLQIETYGPHVPELE,5.15
14,VEEALYEYQPLQIETYGPHVPELE,4.15
15,MEEALYEYQPLQIETYGPHVPELE,3.18
16,AEEALYEYQPLQIETYGPHVPELE,5.28
17,FEEALYEYQPLQIETYGPHVPELE,3.81
18,KEEALYEYQPLQIETYGPHVPELE,4.81
19,LEEALYEYQPLQIETYDPHVPELE,2.21
20,LEEALYEYQPLQIETYIPHVPELE,2.13
21,LEEALYEYQPLQIETYSPHVPELE,2.27
22,LEEALYEYQPLQIETYVPHVPELE,2.12
23,LEEALYEYQPLQIETYPPHVPELE,2.69
24,LEEALYEYQPLQIETYHPHVPELE,3.14

row,Variant,protein stability index
1,LEEALYEYQPLQIETYQPHVPELE,2.53
2,LEEALYEYQPLQIETYAPHVPELE,2.35
3,LEEALYEYQPLQIETYMPHVPELE,1.75
4,LEEALYEYQPLQIETYEPHVPELE,3.14
5,LEEALYEYQPLQIETYKPHVPELE,2.88
6,LEEALYEEQPLQIETYGPHVPELE,5.4
7,LEEALYEVQPLQIETYGPHVPELE,4.98
8,LEEALYECQPLQIETYGPHVPELE,4.91
9,LEEALYERQPLQIETYGPHVPELE,5.44
10,LEEALYELQPLQIETYGPHVPELE,4.75
11,LEEALYEHQPLQIETYGPHVPELE,4.27
12,LEEALYEYQPRQIETYGPHVPELE,4.32
13,LEEALYEYQPIQIETYGPHVPELE,2.56
14,LEEALYEYQPAQIETYGPHVPELE,4.06
15,LEEALYEYQPSQIETYGPHVPELE,4.11
16,LEEALYEYQPTQIETYGPHVPELE,3.99
17,LEEALYEYQPQQIETYGPHVPELE,4.28
18,LEEALYEYQPLQIETYGPHVHELE,2.58
19,LEEALYEYQPLQIETYGPHVKELE,3.01
20,LEEALYEYQPLQIETYGPHVMELE,2.53
21,LEEALYEYQPLQIETYGPHVWELE,1.75
22,LEEALYEYQPLQIETYGPHVSELE,2.41
